The text below walks through data of a protein production outcome set (Wang et al. 2014).

The nature of this data set: label from the status in PepcDB records.
Take “MTDREWPEYPNQSGGETVTGPESAQEEAASERGWEADPPSPASEECQSEEGSNWERTAQEAEEEVPGGQRGEDLGTLGQAQELQEAAPFFQEEGSEPSQTTETSGWKPGMESSEDSREEPDLPAESPESSGQELQEAAALSPEETQVPFQTENAWEPGAERPENPDGGESQEPVAERPSAQPYDQSPAFSRPAPQAPPPVWNPGWQASYRQAPQNYPYGQGQYQGGWHPQQRQVPPPYYGGTPYQAPNPYQNQAPYGYPGQAARNQGQPGYQESRWYPQQPAQPARTGSVPPPSQPPQKEAGELPDAKPPEKKRMNKKTKAFLWVIGAVLVLLGAAMVLYSVGLTSGWFGGETAEPPQASSSTPAPEDDQKLLEIEEIPQDGMMTPNQVYEKVKHSVVAVVTYGQGSDLTDSPISSGSGIVFSEDGYIVTNSHVIGDSNQYPVKMVFTGQDENEEDQEYPAQIVGYDKRTDIAVLKIDAAGLTPAEFADSDQLKVGDTVLSLGNPGVAGENFTNTLTKGMVSAVNRTVTMSSINMQYIQTDAAINPGSSGGALLNLYGQVVGINAAKITTTEIEGICFAIPTNIAKDVINDIVKNGYVSDRVRLGVTIRGLSSYEAEMYNVPQGLVIVGFSSDSEIPSKGAEIGDIITAINGVNTTSSNTLYNELEKFKAGEKVKLTIYRQASGSQRARTFEIEVTLLEARGETQSAVTPTPEAP”: the protein production entry is listed as “failed”.

As to “MTDTNVLANSATDNQETTHFGFETVRKDEKVHKVAQVFHSVAAKYDIMNDLMSGGIHRLWKRFTIDCSGARPGQRILDLGGGTGDLTAKFSRIVGEKGHVILADINNSMLNVGRDKLRDSGVVGNVHYVQANAEELPFPDNYFDCITISFCLRNVTDKDKALRSMFRVLKPGGRLLVLEFSKPILEPLSKLYDTYSFHILPKMGQLIANDADSYRYLAESIRMHPDQETLKGMMEEAGFEQTTYYNLTGGIVALHRGYKFLEHHHHHH”, the protein production result is given as “not failed”.

Regarding “MTDTQNRVAMGYIKGVFGIKGWLKIAANTEYSDSLLDYPEWHLVKDGKTISVTLEAGKVVNGELQVKFEGINDRDLAFSLRGYTIEIPREAFAPTEEDEYYWTDLVGMTVVNKDHTVLGKVSNLMETGANDVLMIDGEHGQILIPFVSQYIETVDTGSKTITADWGLDYLEHHHHHH”, the protein production entry is “not failed”.

On to “MTEAGASIVVTVKNEGKNLRELLESIEKNDFTNFETVVVDDLSTDDTEDIVKSYRFTVYKRIACSRGEGRNIGVDLSRYGYILFTDGDAKVSEHWISGMVSALAAGNDAVIGNTLYTGKRRYMQERVKIFLEGIEVTAPSVNLAYRKDRFRQLGGFDPKFVTAEDIDLNIRAVKAGFRFATCDSCVVYAKVRENLASFLRQAYWNGYGRYQLEMKHPGITRNTRVRLGHNFFDFLHMVSGAAGYLSARISEGKQGRLEHHHHHH”, for which the protein production entry is recorded as “not failed”.

As for “MTEDQAFWNAFAPDYAAAEQASRLPIAHDVIAWLRSTQLLPAHSAVDLAAGTGRYAVQMMPWVQELTLIDWSSAMLAFAKERMHQQADTKAQFIVADWRKLHKPLNADMLFVSQLPTLKPQDLKMLMNWASQTVVLNFQTAQSDALLEQAASLLGLQLPPVYQADPARMISFKVWLTAQRIPFQSHSLTYEIEEQTTLSDLLPDLATPIGLKTAASLAKAITGHENTHVQVTDRLTYTYTQLVWHVLEHHHHHH”, the protein production result is reported as “failed”.

As for “MTEEAAAQQTPVPGMTGPRRAAVGFIFITIALDMLSLGMILPILPKLIESFSDDNTANAARIYGLFGTAWALMQLFASPILGGLSDRFGRRPVILLSNLGLGLDYVLMALAPSLWWLFVGRVISGITSASISTSFAYIADVTPAEKRAAVFGMVGAAFGLGFTFGPAIGGLLGGVDPRLPFWVAAALSLANTLYGLFVLPESLPRDRRSPFRWKSANPIGAVRLLSSNARLAALAVVEFCAEVAHVALPATFVLYTGYRYAWDQTTIGLALAFVGVCTTIVQGGLVGPAVKLLGERNAQIIGYGGGALGFLIYALAPSGTLFWIGIPVMTLWGIAGPATSGMMTRLVSPSQQGQLQGATTSVKSVAELIGPFLFTMIFAYFIDAGAPLQLPGAPFLLAGALLVVSVVIVAFASPAADSKQAPQAAPES”, the protein production result is “failed”.

On to “MTEFALDTSTGITIIVLFGVFWVAFGYWLGRKNRSHEDFALAGRNVGFAFAAATAMATWVTSNTTLVAPQLTYQFGIWGMVGYSFAALGLVLFAPMAKRIKELLPNGYTSGDFVRLRYGNLAWLVFIIISVVYAFGWLISLGMAGGILLESLSGLDYHIGMTTILVICVGYTLFGGMRAVIATDFIQALIIIVGVSFIAYWIIDNVGLESIHSNLTSEHPQLLDMLFPAAVMFLFNNIFFGLGEIFHSNVWWSRALSFKKNVAYKAYLTGGLLWLPIPIVTGFIALAAPQLGIFPPSPDMIGPTVAAAVLGKAGAIIVFIVIFSALASSLDSLLAATSDLVTQDIFHKKLKPKASDKTLMRFNRSCILGLGVVTWLLCLPRVATLGALLNFAGAFVASTIWPIVLGLYHRRLTGTYAACAMGFGTAFGMLSYFVVGFYVAALVSCAVSGLICLVGIFRSSDKFDWDTLNEKEQSNANQ”, for which the protein production entry is recorded as “failed”.

For “MTEILPHVNDEVLPAEYELNQPEPEHCPGPESDMAGKSDACGGCANKEICESLPKGPDPDIPLITDNLSGIEHKILVLSGKGGVGKSTFAAMLSWALSADEDLQVGAMDLDICGPSLPHMLGCIKETVHESNSGWTPVYVTDNLATMSIQYMLPEDDSAIIWRGSKKNLLIKKFLKDVDWDKLDYLVIDTPPGTSDEHISINKYMRESGIDGALVVTTPQEVALLDVRKEIDFCKKAGINILGLVENMSGFVCPNCKGESQIFKATTGGGEALCKELGIKFLGSVPLDPRIGKSCDMGESFLDNYPDSPASSAVLNVVEALRDAVGDV”, the protein production entry is reported as “failed”.

“MTEIQRLLSETIDDLNIREKRDNRPRFSISFIRKHPGLFIAMYAAWFATLAVMLQSETLVGSVWLLVVLFIAFNGFFFFDIAPRYHYNDIDVLDLRVCYNGEWYNTRFVPPTLIETILQSPQVDNEHKVQLQKMVARKGELSFYDIFTLARAEASR”: the protein production result was “failed”.

As to “MTEISYEAIAFEQSGPITRITLNRPDAANGMNDTMTRELADAARRADTSGAKVVVLTGSGRFFSAGGDLKAFSTAPSRGAFIKGVADDLHRAISSFARMDAVLITAVNGTAAGAGFSIAVTGDLVLAAESASFTMAYTKVGLSPDGSASYYLPRLVGMRRAQELMLTNRTLSATEAYEWGLVTEVVPDADLADRATKLAEQVAAGSAGSNGAVKSLLLSSLKNSLEEQMEAEGRFIAARADSADGREGVDAFLGKRRPEFA”, the protein production result is “failed”.

For the sequence “MTEKKIDFKKEEKKFYAPKRKPERIFVPEMNFLMVDGKGDPDGEEYQKAVQSLYAIAYTIKMSKMGETRLDGYSDFVVPPLEGFWWSEGKFDLKDRDAWLWTSILRQPDFVTEEVLEWAKEVARKKKPDVDTSRVKLVRFEEGECVQMMHVGPFSEEVHTVAEMHQFMETEGLRNDTGAIRKHHEIYLSDPRKANPEKMKTILRLPVS”, the protein production result is given as “not failed”.

As for “MTEKLIEQLEARINDLECQVAFQEQTIEDLNSALSQQQLQITKMQDQMKYVVGKVKNMDSSNMEDPANEPPPPHY”, the protein production entry is “failed”.

As for “MTEKNTLKKSATLAAAGLVVAGALLAGCGESKATPMDDAYAGNSGETEKSQEEQSQSQSNGSDSSDGSDSGSSHNDPSTTTSDKKDTGNYKDGNYSINGQYGPVGEDSIDVHLTIKDGNVETVKIIGHPFTTISKNHQDDFAKAINGVVDGKPLKGLKVDKVAGASWTSDAFNKALEVARQEASIQE”, the protein production result is reported as “failed”.

For “MTEKSQEPTAALDAEQVAAYLSQHPEFFVEHDELIPELRIPHQPGDAVSLVERQVRLLRERNIEMRHRLSQLMDVARENDRLFDKTRRLVLDLLDATSLEDVVSTVEDSLRHEFQVPYVSLILFSDSSVSVGRSVSSAEAHQAIGGLLSGGKTVCGVLRPHELAFLFGESDRDEIGSAAVVSLSFQGLHGVLAIGSPDPQHYKSSLGTLFLGYVAEVLARVLPRFSSPLRSVR”, the protein production result is given as “not failed”.

For “MTELTILLGLAAAGYGVSHWTQLPAIPFLLMGGLALNATGAVGDAGFVEDVLFLSVSILLFVAGTDLSLTRVGPFKKTAFVIGVAQFAGLAAAALGIAYGLDYALTDALYLGLALAASSTIVGVRLLQRRQQMFEPYGRTVLGALLLQDVIVVLLLPLLVRLPDGSAAVLGSLGGTIVLLVGVGVVMKGVVPLLLKRELDAETQLLAVLGVLFGFMGAAAWLDVPLFAAAFLAGVSLSGFPFSGIVHSEMQPLYDFFSALFFASLGVAAPQPAPVLFGHAALFAGAVLVLTPLIVAVVGAWAGLVAQSALESGLLLAQTSELSLVVGLQALVAGQIGGEVFSVIVLTTVFTMMLTPLLTSETVVWELVRWHPSRQSDVLSEVPSNHVLVVGGGRSARPLLRLLRESKYEAVVVDEDPTVVDRLRDQGVRCVRGDGSDRAVLLKAGGAQARIVVSLLRNPKAVESLLDYVGDTVPILVRVFEDHEAEWVEARGGTPIRFAHAASDAFMEWFRRAQSARSKQPPSGT”, the protein production result is “failed”.

Regarding “MTENIPKSVAAMIRQPRKISPFWLLPIVAFIIGALLFFQILKEQGETIKIRFNAGDGIVAGKTIVRYQGLQIGQVKKVYFVDDLKKVEVQAQINSEAKSVLREGTTFWLVKPSASIAGVSGLDALVSGNYITLAPGNGAITNHFVAQDEQPAATVTDGDLLVHLIASDLGSITIGASVYFRKVPVGNIANYRFTEDKQKVEIDVVINKKYAHLVKQNSRFWNISGLNANISFSGLAVNVDSLASVIQGAVSFDSPEDSTLAEQASRFDLYADLKSAQRGVDVNITVPAMTSLKVNETPVFYQNTQVGVLSFIEAMPIDNKEIERVEENAMLRGRLLIDPNYTHLFREQSTILLKEPKFNLNAEQLTNIGQLLRGVYFEVKAGNGLAKRTFTVEKESDYLLSRPDMLALTFFAPKAYGVEEGQGIYYNDVKIGELLKRTLSVDGVTLQGIIFPAYRYLVGENSKFMAIAHLDVAVGLDGLRVKAGSPSHWLQGGIRLLEGKVQGVAKKQYPLYKDIDNAQAGILSDIKQPTLTLSASELEGIDKGAVVLYRNYQIGEVLNVKPQSQKFDVEVYIEPAYRQLIGNKSRFWVESAIEAELSAKGLSIQSAPLMRTLRGAISIDNGGDKMDRTLYANRIKATANKTRISLIAKDASKLFKGMAIKYMGLTIGQIETLALQNAKKQIKLTAYIEAPYYSIIAKEGSCFTAISPEVTPSGVKNIDAVLQNYIDVEAGNGGLATEFNLIDTDTNKTTYANNFPIIVETSDARGIEVNAPVLYRGLQVGIVQRLQLSELADRIQIHLAIEKQYQHLIRNNTQFWAASGYTMDISLQGVSLNSGTMAQLLKGGIEFLTPSTRVVEPQAKPNRRFLLQRKIPAKALSWDQAIAE”, the protein production entry is “failed”.

As for “MTENPEEDNKVFNYWWLAHLVEVRLDAYLRTKKQADLEVAEKTYLHNKNRNGGTLIHDFYDDMLWNALAAYRLYKATGKSIYLEDAQLVWQDLVDTGWNDIMGGGFAWRRPQMYYKNTPVNAPFIILSCWLYNELNETKYLEWAMKTYEWQTKVLVREDGFVEDGINRLEDGTIDYEWKFTYNQGVYIGANLELYRITKEAKYLDTANKTAAISLKELTEDGIFKDEGNGGDEGLFKGIFYRYFTDLIEETANKTYRDFVLNSCQILVENAKLDGYLLMGMNWKEKPSGKIPYSAELSGMIALEMAAKLELEHHHHHH”, the protein production entry is “not failed”.

Regarding “MTEPCYVMVDQRFDEFVDTARAPEQIVHGFAWTEGPVWLDGAPFFNDIANKRMMRWTKQACAEVALDNSEFANGNTLDGAGQVVSGEHAGRRVIRRPDPTDPSAVEVIAERSEGKRLNSPNEVVVRSDGSVWFTNPPYGINSDIEGYPAESEIGGCFVFCPDPDGTLHAVATEFDKPNELAFSPDECRLFVADSGAIRGAIFPGIDDDLPHHVRVFDVDGVTLSNGRVFAVVAPGAPDGFRVDHEGYVWTSALDGIHCLSPEGALIGKIWLPRQTSIICFGGPPGQTMFITSSDKVYRVESTRRDAAHALRDRERNAE”, the protein production entry is on record as “failed”.
